{"source": "patent US12134789B2", "about": "“Construction method and applications of glycosyltransferase BS-YjiC mutant” (Northwest university, priority 2023, dated 2024)", "key": {"[1]": {"experiment": "Thermal stability: residual enzyme activity after incubation at 45° C.", "assay_type": "biochemical", "details": "pure enzyme incubated in water bath at 45° C. for 90 min; enzyme without high-temperature treatment as blank control", "experimental": "(§1) The detection methods involved in the following embodiments are as follows. • 1. Determination method of enzyme activity of glycosyltransferase BS-YjiC: 50 microliters (μL) of pure enzyme with a concentration of 1.5 milligrams per milliliter (mg/mL) is added to 950 μL of a reaction system containing 50 millimoles per liter (mM) Tris hydrochloride (Tris-HCl) (pH 8.0) buffer of 1 mM protopanaxadiol (PPD), 5 mM uridine diphosphate glucose (UDPG) and 8 mM magnesium chloride (MgCl2); reacted in a water bath at 35° C. for 30 minutes (min), then added the same volume of methanol to terminate the enzymatic reaction, so as to obtain a reacted product. The reacted product is centrifuged, then the supernatant is taken and filtered with a 0.22 micrometers (μm) filter to obtain a reaction solution, and the residual amount of PPD in the reaction solution is detected by high-performance liquid chromatography (HPLC). • 2. Definition of enzyme activity: the amount of enzyme required to convert 1 micromole (μmol) of ginsenoside PPD per minute at 35° C. and pH 8.0 is defined as one unit of enzyme activity U.\nAfter the prepared pure enzymes are incubated in a water bath at 45° C. for 90 min, 1 mL is taken, and the residual enzyme activity of the remaining enzymes is determined according to the enzyme activity determination method of the glycosyltransferase BS-YjiC, and the percentage of residual enzyme activity is obtained by taking the enzyme activity of the pure enzyme solution without high-temperature treatment as a blank control.\nThe pure enzyme solutions containing wild-type glycosyltransferase BS-YjiC, K125I, N178I, P313W, K125I/N178I and K125I/P313W prepared in the step 2 of the embodiment 6 are taken, respectively, then put in a constant temperature water bath at 45° C., and sampled every 30 min. The residual enzyme activity of glycosyltransferase BS-YjiC is measured according to the enzyme activity determination method, and its thermal stability is compared."}, "[2]": {"experiment": "Initial enzyme activity of pure enzyme solutions", "assay_type": "biochemical", "details": "35° C., pH 8.0, 1 mM PPD, 5 mM UDPG", "experimental": "as §1\nThe pure enzyme solutions containing the wild-type glycosyltransferase BS-YjiC, K125I, N178I, P313W, K125I/N178I, and K125I/P313W prepared above are detected respectively, and the results are shown in Table 2."}, "[3]": {"experiment": "Kinetic parameters with PPD as substrate (HPLC)", "assay_type": "biochemical", "details": "50-1000 μM PPD, 10 mM UDPG, 8 mM MgCl2, pH 8.0, 35° C., 30 min", "experimental": "0.22 μg of pure enzyme is added into 50 mM […] (pH 8.0) buffer containing 10 mM UDPG and 8 mM MgCl2, added 50, 100, 200, 300, 400, 500, 600, 800 and 1000 μM PPD respectively, reacted at 35° C. in water bath for 30 min, and then then an equal volume of methanol is added to terminate the enzymatic reaction. The reacted products are centrifuged, then the supernatants are taken and filtered by a 0.22 μm filter to obtain reaction solutions, and the remaining amount of PPD in the reaction solutions is detected by HPLC."}, "[4]": {"experiment": "Melting temperature Tm of the enzyme", "assay_type": "physicochemical"}}, "note": "Values joined by “and” are separate entries in the source; they are usually repeats but may differ in a detail not shown here. Equal entries are not always repeated.", "data": [{"molecule": "WT: wild-type glycosyltransferase BS-YjiC from Bacillus subtilis 168, amino acid sequence SEQ ID NO: 1 (protein) MKKYHISMINIPAYGHVNPTLALVEKLCEKGHRVTYATTEEFAPAVQQAGGEALIYHTSLNIDPKQIREMMEKNDAPLSLLKESLSILPQLEELYKDDQPDLIIYDFVALAGKLFAEKLNVPVIKLCSSYAQNESFQLGNEDMLKKIREAEAEFKAYLEQEKLPAVSFEQLAVPEALNIVFMPKSFQIQHETFDDRFCFVGPSLGERKEKESLLIDKDDRPLMLISLGTAFNAWPEFYKMCIKAFRDSSWQVIMSVGKTIDPESLEDIPANFTIRQSVPQLEVLEKADLFISHGGMNSTMEAMNAGVPLVVIPQMYEQELTANRVDELGLGVYLPKEEVTVSSLQEAVQAVSSDQELLSRVKNMQKDVKEAGGAERAAAEIEAFMKKSAVPQ", "values": [{"measurement": "Residual enzyme activity (%)", "setting": "[1]", "value": 84.6, "unit": "%"}, {"measurement": "Initial enzyme activity (%)", "setting": "[2]", "value": 100, "unit": "%"}, {"measurement": "Kcat", "setting": "[3]", "value": "0.96 ± 0.06", "unit": "s⁻¹"}, {"measurement": "Km", "setting": "[3]", "value": "132 ± 32.1", "unit": "µM"}, {"measurement": "Vmax", "setting": "[3]", "value": "8.32 ± 0.36", "unit": "U g^−1"}, {"measurement": "melting temperature Tm", "setting": "[4]", "value": 47.30, "unit": "°C"}]}, {"molecule": "K125I/N178I: BS-YjiC (SEQ ID NO: 1) double mutant: lysine into isoleucine (K125I) and asparagine 178 into isoleucine (protein) MKKYHISMINIPAYGHVNPTLALVEKLCEKGHRVTYATTEEFAPAVQQAGGEALIYHTSLNIDPKQIREMMEKNDAPLSLLKESLSILPQLEELYKDDQPDLIIYDFVALAGKLFAEKLNVPVIILCSSYAQNESFQLGNEDMLKKIREAEAEFKAYLEQEKLPAVSFEQLAVPEALIIVFMPKSFQIQHETFDDRFCFVGPSLGERKEKESLLIDKDDRPLMLISLGTAFNAWPEFYKMCIKAFRDSSWQVIMSVGKTIDPESLEDIPANFTIRQSVPQLEVLEKADLFISHGGMNSTMEAMNAGVPLVVIPQMYEQELTANRVDELGLGVYLPKEEVTVSSLQEAVQAVSSDQELLSRVKNMQKDVKEAGGAERAAAEIEAFMKKSAVPQ", "values": [{"measurement": "Residual enzyme activity (%)", "setting": "[1]", "value": "98.3% and 98.25%"}, {"measurement": "Initial enzyme activity (%)", "setting": "[2]", "value": 106.47, "unit": "%"}, {"measurement": "Kcat", "setting": "[3]", "value": "1.01 ± 0.05", "unit": "s⁻¹"}, {"measurement": "Km", "setting": "[3]", "value": "117 ± 22.5", "unit": "µM"}, {"measurement": "Vmax", "setting": "[3]", "value": "8.82 ± 0.45", "unit": "U g^−1"}, {"measurement": "increase of melting temperature Tm over natural glycosyltransferase BS-YjiC", "setting": "[4]", "value": 7.21, "unit": "°C"}, {"measurement": "melting temperature Tm", "setting": "[4]", "value": 54.51, "unit": "°C"}]}, {"molecule": "P313W: BS-YjiC (SEQ ID NO: 1) mutant with proline at the 313th position mutated into tryptophan (protein) MKKYHISMINIPAYGHVNPTLALVEKLCEKGHRVTYATTEEFAPAVQQAGGEALIYHTSLNIDPKQIREMMEKNDAPLSLLKESLSILPQLEELYKDDQPDLIIYDFVALAGKLFAEKLNVPVIKLCSSYAQNESFQLGNEDMLKKIREAEAEFKAYLEQEKLPAVSFEQLAVPEALNIVFMPKSFQIQHETFDDRFCFVGPSLGERKEKESLLIDKDDRPLMLISLGTAFNAWPEFYKMCIKAFRDSSWQVIMSVGKTIDPESLEDIPANFTIRQSVPQLEVLEKADLFISHGGMNSTMEAMNAGVPLVVIWQMYEQELTANRVDELGLGVYLPKEEVTVSSLQEAVQAVSSDQELLSRVKNMQKDVKEAGGAERAAAEIEAFMKKSAVPQ", "values": [{"measurement": "Residual enzyme activity (%)", "setting": "[1]", "value": 89.48, "unit": "%"}, {"measurement": "Initial enzyme activity (%)", "setting": "[2]", "value": 96.53, "unit": "%"}, {"measurement": "Kcat", "setting": "[3]", "value": "1.11 ± 0.08", "unit": "s⁻¹"}, {"measurement": "Km", "setting": "[3]", "value": "136 ± 32", "unit": "µM"}, {"measurement": "Vmax", "setting": "[3]", "value": "8.94 ± 0.60", "unit": "U g^−1"}]}, {"molecule": "N178I: BS-YjiC (SEQ ID NO: 1) mutant with asparagine at the 178th position mutated into isoleucine (protein) MKKYHISMINIPAYGHVNPTLALVEKLCEKGHRVTYATTEEFAPAVQQAGGEALIYHTSLNIDPKQIREMMEKNDAPLSLLKESLSILPQLEELYKDDQPDLIIYDFVALAGKLFAEKLNVPVIKLCSSYAQNESFQLGNEDMLKKIREAEAEFKAYLEQEKLPAVSFEQLAVPEALIIVFMPKSFQIQHETFDDRFCFVGPSLGERKEKESLLIDKDDRPLMLISLGTAFNAWPEFYKMCIKAFRDSSWQVIMSVGKTIDPESLEDIPANFTIRQSVPQLEVLEKADLFISHGGMNSTMEAMNAGVPLVVIPQMYEQELTANRVDELGLGVYLPKEEVTVSSLQEAVQAVSSDQELLSRVKNMQKDVKEAGGAERAAAEIEAFMKKSAVPQ", "values": [{"measurement": "Residual enzyme activity (%)", "setting": "[1]", "value": 87.42, "unit": "%"}, {"measurement": "Initial enzyme activity (%)", "setting": "[2]", "value": 98.76, "unit": "%"}, {"measurement": "Kcat", "setting": "[3]", "value": "1.01 ± 0.07", "unit": "s⁻¹"}, {"measurement": "Km", "setting": "[3]", "value": "132 ± 33.8", "unit": "µM"}, {"measurement": "Vmax", "setting": "[3]", "value": "8.75 ± 0.62", "unit": "U g^−1"}]}, {"molecule": "K125I: BS-YjiC (SEQ ID NO: 1) mutant with lysine mutated into isoleucine (K125I) (protein) MKKYHISMINIPAYGHVNPTLALVEKLCEKGHRVTYATTEEFAPAVQQAGGEALIYHTSLNIDPKQIREMMEKNDAPLSLLKESLSILPQLEELYKDDQPDLIIYDFVALAGKLFAEKLNVPVIILCSSYAQNESFQLGNEDMLKKIREAEAEFKAYLEQEKLPAVSFEQLAVPEALNIVFMPKSFQIQHETFDDRFCFVGPSLGERKEKESLLIDKDDRPLMLISLGTAFNAWPEFYKMCIKAFRDSSWQVIMSVGKTIDPESLEDIPANFTIRQSVPQLEVLEKADLFISHGGMNSTMEAMNAGVPLVVIPQMYEQELTANRVDELGLGVYLPKEEVTVSSLQEAVQAVSSDQELLSRVKNMQKDVKEAGGAERAAAEIEAFMKKSAVPQ", "values": [{"measurement": "Residual enzyme activity (%)", "setting": "[1]", "value": 91.05, "unit": "%"}, {"measurement": "Initial enzyme activity (%)", "setting": "[2]", "value": 103.15, "unit": "%"}, {"measurement": "Kcat", "setting": "[3]", "value": "0.99 ± 0.05", "unit": "s⁻¹"}, {"measurement": "Km", "setting": "[3]", "value": "128 ± 22.4", "unit": "µM"}, {"measurement": "Vmax", "setting": "[3]", "value": "8.60 ± 0.41", "unit": "U g^−1"}]}, {"molecule": "K125I/P313W: BS-YjiC (SEQ ID NO: 1) double mutant: lysine into isoleucine (K125I) and proline 313 into tryptophan (protein) MKKYHISMINIPAYGHVNPTLALVEKLCEKGHRVTYATTEEFAPAVQQAGGEALIYHTSLNIDPKQIREMMEKNDAPLSLLKESLSILPQLEELYKDDQPDLIIYDFVALAGKLFAEKLNVPVIILCSSYAQNESFQLGNEDMLKKIREAEAEFKAYLEQEKLPAVSFEQLAVPEALNIVFMPKSFQIQHETFDDRFCFVGPSLGERKEKESLLIDKDDRPLMLISLGTAFNAWPEFYKMCIKAFRDSSWQVIMSVGKTIDPESLEDIPANFTIRQSVPQLEVLEKADLFISHGGMNSTMEAMNAGVPLVVIWQMYEQELTANRVDELGLGVYLPKEEVTVSSLQEAVQAVSSDQELLSRVKNMQKDVKEAGGAERAAAEIEAFMKKSAVPQ", "values": [{"measurement": "Residual enzyme activity (%)", "setting": "[1]", "value": "95.1% and 95.43%"}, {"measurement": "Initial enzyme activity (%)", "setting": "[2]", "value": 105.13, "unit": "%"}, {"measurement": "Kcat", "setting": "[3]", "value": "0.98 ± 0.05", "unit": "s⁻¹"}, {"measurement": "Km", "setting": "[3]", "value": "121 ± 23.1", "unit": "µM"}, {"measurement": "Vmax", "setting": "[3]", "value": "8.56 ± 0.44", "unit": "U g^−1"}, {"measurement": "increase of melting temperature Tm over natural glycosyltransferase BS-YjiC", "setting": "[4]", "value": 5.77, "unit": "°C"}, {"measurement": "melting temperature Tm", "setting": "[4]", "value": 53.07, "unit": "°C"}]}]}
